The source of these data is the MegaScale stability set (Tsuboyama et al. 2023).

To fix the notation:
B1: EEHEE_rd4_0003 (parent)
chain: KKVTINGVEIKFNNPEEAVKFALELAKRLNLRIEFHGDQIKIE

This data set covers variants of B1. Kind of data set: folding stability dG (cDNA display proteolysis); higher = more stable. The settings on record: PBS, room temperature.
As for KKVTINGVEIKFNNPEEANKFALELAKRLNLRIEFHGDQIKIE [V19N], the “folding stability dG” value stood at 1.83 kcal/mol.

With KKVTINGVEIKMNNPEEAVKFALELAKRLNLRIEFHGDQIKIE [F12M], the “folding stability dG” value worked out at 1.96 kcal/mol.

As to KKVTINGVEIKQNNPEEAVKFALELAKRLNLRIEFHGDQIKIE [F12Q], the “folding stability dG” value amounted to 1.13 kcal/mol.

For KKVTINGVEIKNNNPEEAVKFALELAKRLNLRIEFHGDQIKIE [F12N], the “folding stability dG” value stood at 1.33 kcal/mol.

Consider KKVTINGVEIKKNNPEEAVKFALELAKRLNLRIEFHGDQIKIE [F12K], for which the “folding stability dG” value stood at 1.09 kcal/mol.

As to KKVIINGVEIKFNNPEEAVKFALELAKRLNLRIEFHGDQIKIE [T4I], the “folding stability dG” value was found to be 3 kcal/mol.

KKVGINGVEIKFNNPEEAVKFALELAKRLNLRIEFHGDQIKIE [T4G]: the “folding stability dG” value is 1.61 kcal/mol.

Take KKVHINGVEIKFNNPEEAVKFALELAKRLNLRIEFHGDQIKIE [T4H]: the “folding stability dG” value turned out to be 2.26 kcal/mol.

Take KKVPINGVEIKFNNPEEAVKFALELAKRLNLRIEFHGDQIKIE [T4P]: the “folding stability dG” value was found to be 1.76 kcal/mol.

On to KKVTINGVEIKFNNPEEAVKFALELAKRLNLRIPFHGDQIKIE [E34P], for which the “folding stability dG” value was determined as 1.48 kcal/mol.

As to KKVTINGVEIKFNNPEEAVKFALELAKRLNLRIYFHGDQIKIE [E34Y], the “folding stability dG” value was found to be 2.77 kcal/mol.

As for KKVTINGVEIKFNNPEEAVKFALELAKRLNLRILFHGDQIKIE [E34L], the “folding stability dG” value is 2.49 kcal/mol.

Regarding GKVTINGVEIKFNNPEEAVKFALELAKRLNLRIEFHGDQIKIE [K1G], the “folding stability dG” value came out at 2.6 kcal/mol.

As to LKVTINGVEIKFNNPEEAVKFALELAKRLNLRIEFHGDQIKIE [K1L], the “folding stability dG” value worked out at 3.15 kcal/mol.

As to WKVTINGVEIKFNNPEEAVKFALELAKRLNLRIEFHGDQIKIE [K1W], the “folding stability dG” value stood at 3.51 kcal/mol.

Turning to SKVTINGVEIKFNNPEEAVKFALELAKRLNLRIEFHGDQIKIE [K1S], the “folding stability dG” value worked out at 2.83 kcal/mol.

Take EKVTINGVEIKFNNPEEAVKFALELAKRLNLRIEFHGDQIKIE [K1E]: the “folding stability dG” value came out at 2.09 kcal/mol.

Take QKVTINGVEIKFNNPEEAVKFALELAKRLNLRIEFHGDQIKIE [K1Q]: the “folding stability dG” value was found to be 2.5 kcal/mol.

As for KKVTINGVEIKFNNPEEAVQFALELAKRLNLRIEFHGDQIKIE [K20Q], the “folding stability dG” value was 2.44 kcal/mol.

Take KKVTINGVEIKFNNPEEAVDFALELAKRLNLRIEFHGDQIKIE [K20D]: the “folding stability dG” value was 1.93 kcal/mol.

In the case of KKVTINGVEIKFNNPEEAVEFALELAKRLNLRIEFHGDQIKIE [K20E], the “folding stability dG” value worked out at 2.28 kcal/mol.

Turning to KKVTINGVEIKFNNPEEAVIFALELAKRLNLRIEFHGDQIKIE [K20I], the “folding stability dG” value worked out at 2.38 kcal/mol.

Turning to KKVTIAGVEIKFNNPEEAVKFALELAKRLNLRIEFHGDQIKIE [N6A], the “folding stability dG” value was found to be 2.41 kcal/mol.

As for KKVTIEGVEIKFNNPEEAVKFALELAKRLNLRIEFHGDQIKIE [N6E], the “folding stability dG” value stood at 1.91 kcal/mol.

As for KKPTINGVEIKFNNPEEAVKFALELAKRLNLRIEFHGDQIKIE [V3P], the “folding stability dG” value is 2.06 kcal/mol.

Regarding KKNTINGVEIKFNNPEEAVKFALELAKRLNLRIEFHGDQIKIE [V3N], the “folding stability dG” value was 1.7 kcal/mol.

Turning to KKKTINGVEIKFNNPEEAVKFALELAKRLNLRIEFHGDQIKIE [V3K], the “folding stability dG” value is 1.57 kcal/mol.

Take KKMTINGVEIKFNNPEEAVKFALELAKRLNLRIEFHGDQIKIE [V3M]: the “folding stability dG” value worked out at 2.12 kcal/mol.

Turning to KKVTINGVEIKFNNPEEAVKFALELAKRLNLRIEFHGDQIAIE [K41A], the “folding stability dG” value turned out to be 2.36 kcal/mol.

In the case of KKVTINGVEIKFNNPEEAVKFALELAKRLNLRIEFHGDQIQIE [K41Q], the “folding stability dG” value was 2.27 kcal/mol.

On to KKVTINGVEIKFNNPEEAVKFALELAKRLNLRIEFHGDQIVIE [K41V], for which the “folding stability dG” value was 3 kcal/mol.

With KKVTINGVEIKFNNPEEAVKFALELAKRLNLRIEFHGDQIDIE [K41D], the “folding stability dG” value is 1.91 kcal/mol.

Take KKVTINGVEIKFNNPEEAVKFALELAKRLNLRIEFHGDQIPIE [K41P]: the “folding stability dG” value was 1.3 kcal/mol.

KKVTINGVEIKFNNPEENVKFALELAKRLNLRIEFHGDQIKIE [A18N]: the “folding stability dG” value is 1.75 kcal/mol.

KKVTINGVEIKFNNPEEWVKFALELAKRLNLRIEFHGDQIKIE [A18W]: the “folding stability dG” value is 2.78 kcal/mol.

In the case of KKVTINGVEIKFNNPEEVVKFALELAKRLNLRIEFHGDQIKIE [A18V], the “folding stability dG” value came out at 2.48 kcal/mol.

For the variant KKVTINGVEIKFNNPEEAVKFALELAKRLNLRIEFHGDTIKIE [Q39T], the “folding stability dG” value came to 3.22 kcal/mol.

With KKVTINGVEIKFNNPEEAVKFALELAKRLNLRIEFHGDPIKIE [Q39P], the “folding stability dG” value is 1.77 kcal/mol.

In the case of KKVTINGVEIKFNNPEEAVKFALELAKRLNLRIEFHGDEIKIE [Q39E], the “folding stability dG” value stood at 2.92 kcal/mol.

Consider KKVTINGVEIKFNNPEEAVKFALELAKRPNLRIEFHGDQIKIE [L29P], for which the “folding stability dG” value is 1.52 kcal/mol.

For KKVTINGVEIKFNNPEEAVKFALELAKRVNLRIEFHGDQIKIE [L29V], the “folding stability dG” value came to 1.77 kcal/mol.

Regarding KKVTINGVEIKFNNPEEAVKFALELAKRFNLRIEFHGDQIKIE [L29F], the “folding stability dG” value is 2.65 kcal/mol.

KKVTINGVEIKFNNPEEAVKFALELAKRANLRIEFHGDQIKIE [L29A]: the “folding stability dG” value was determined as 1.74 kcal/mol.

Take KKVTINGVEIKFNNPEEAVKFALELAKRENLRIEFHGDQIKIE [L29E]: the “folding stability dG” value was determined as 1.66 kcal/mol.

On to KKVTINGVEIKFNNPEEAVKFQLELAKRLNLRIEFHGDQIKIE [A22Q], for which the “folding stability dG” value was determined as 1.22 kcal/mol.

Regarding KKVTINGVEIKFNNPEEAVKFFLELAKRLNLRIEFHGDQIKIE [A22F], the “folding stability dG” value came to 2.74 kcal/mol.

Regarding KKVTINGVEIKFNNPYEAVKFALELAKRLNLRIEFHGDQIKIE [E16Y], the “folding stability dG” value was 2.7 kcal/mol.

For KKVTINGVEIKFNNPIEAVKFALELAKRLNLRIEFHGDQIKIE [E16I], the “folding stability dG” value amounted to 2.59 kcal/mol.

KKVTINGVEIKFNNPGEAVKFALELAKRLNLRIEFHGDQIKIE [E16G]: the “folding stability dG” value was found to be 2.48 kcal/mol.

As for KKVTINGVEIKFNNPWEAVKFALELAKRLNLRIEFHGDQIKIE [E16W], the “folding stability dG” value was found to be 2.99 kcal/mol.

On to KKVTINGVEIKFNNPTEAVKFALELAKRLNLRIEFHGDQIKIE [E16T], for which the “folding stability dG” value is 2.46 kcal/mol.

On to KKVTINGVEIKFNNPEEAVKFALELAKRLNLRIEFNGDQIKIE [H36N], for which the “folding stability dG” value was 2.58 kcal/mol.

As for KKVTINGVEIKFNNPEEAVKFALELRKRLNLRIEFHGDQIKIE [A26R], the “folding stability dG” value amounted to 1.73 kcal/mol.

On to KKVTINGVEIKFNNPEEAVKFALELAKRLNLRIEFHGDQIKYE [I42Y], for which the “folding stability dG” value was 1.6 kcal/mol.

For the variant KKVTINGVEIKFNNPEEAVKFALELAKRLNLRIEFHGDQIKME [I42M], the “folding stability dG” value turned out to be 2.25 kcal/mol.

KKVTINGVEIKFNNPEEAVKFALELAKRLNLRIEFHGDQIKDE [I42D]: the “folding stability dG” value worked out at 1.36 kcal/mol.

Regarding KKVTINGVEKKFNNPEEAVKFALELAKRLNLRIEFHGDQIKIE [I10K], the “folding stability dG” value was 1.83 kcal/mol.

Turning to KKVTINGVEAKFNNPEEAVKFALELAKRLNLRIEFHGDQIKIE [I10A], the “folding stability dG” value amounted to 1.65 kcal/mol.

In the case of KKVTINGVEIKFNNPEEAVKFALELADRLNLRIEFHGDQIKIE [K27D], the “folding stability dG” value is 2.03 kcal/mol.
